Test [1] deals with IANBD-labeled Hsp90 M362C (human). In words: stopped-flow fluorescence; IANBD-labeled Hsp90 M362C (1 µM) mixed with equal volumes of FKBP51, FK1-FK2, FK2-TPR or buffer, pseudo-first-order, 37 °C, 25 mM sodium phosphate/300 mM NaCl pH 7.2; rates as fluorescence increase at 20 s.
For test [2], the target named is human full-length Hsp90β (human) (UniProt P08238). Description: ITC. Particulars: domain or fragment.

We go through two substances from PMC6208366.

pKd: −log10 of the molar value.

Chain of FK2-TPR (which lacks FK1) (Q13451 whole entry): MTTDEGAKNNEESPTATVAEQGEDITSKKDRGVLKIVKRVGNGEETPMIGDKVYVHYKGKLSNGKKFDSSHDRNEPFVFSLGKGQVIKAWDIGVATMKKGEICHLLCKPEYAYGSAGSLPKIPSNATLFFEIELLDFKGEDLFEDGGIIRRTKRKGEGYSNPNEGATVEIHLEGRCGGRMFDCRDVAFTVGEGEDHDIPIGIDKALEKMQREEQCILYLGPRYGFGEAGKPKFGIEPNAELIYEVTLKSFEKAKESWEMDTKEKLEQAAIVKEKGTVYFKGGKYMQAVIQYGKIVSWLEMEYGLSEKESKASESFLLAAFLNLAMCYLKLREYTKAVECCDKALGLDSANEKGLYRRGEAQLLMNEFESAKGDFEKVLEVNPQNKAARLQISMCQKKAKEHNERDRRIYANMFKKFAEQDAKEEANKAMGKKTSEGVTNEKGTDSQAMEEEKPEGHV
Chain of human full-length Hsp90β (human) (P08238 whole entry, the tested form may be a part): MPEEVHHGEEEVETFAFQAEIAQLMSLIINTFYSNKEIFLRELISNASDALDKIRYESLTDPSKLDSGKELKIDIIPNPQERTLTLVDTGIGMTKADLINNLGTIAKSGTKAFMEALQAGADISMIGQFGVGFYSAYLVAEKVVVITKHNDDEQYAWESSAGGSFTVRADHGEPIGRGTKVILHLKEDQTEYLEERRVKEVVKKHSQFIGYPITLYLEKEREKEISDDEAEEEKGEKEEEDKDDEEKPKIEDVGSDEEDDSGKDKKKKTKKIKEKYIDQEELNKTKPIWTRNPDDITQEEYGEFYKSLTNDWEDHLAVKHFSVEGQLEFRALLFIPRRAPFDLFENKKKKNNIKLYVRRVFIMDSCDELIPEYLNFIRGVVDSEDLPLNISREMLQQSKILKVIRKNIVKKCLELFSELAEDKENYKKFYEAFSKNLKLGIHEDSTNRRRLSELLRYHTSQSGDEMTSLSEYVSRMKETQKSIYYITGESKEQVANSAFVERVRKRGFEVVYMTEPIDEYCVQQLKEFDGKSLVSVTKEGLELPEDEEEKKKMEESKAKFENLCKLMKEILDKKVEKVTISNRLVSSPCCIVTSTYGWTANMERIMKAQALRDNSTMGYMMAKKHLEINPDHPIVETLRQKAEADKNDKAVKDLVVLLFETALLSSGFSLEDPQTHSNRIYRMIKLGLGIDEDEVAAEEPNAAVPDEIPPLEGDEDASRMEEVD

As to “FK2-TPR (which lacks FK1) (from UniProt Q13451 1-457) (domain or fragment)”, the ΔF (rate of Hsp90 binding, fluorescence increase) in test [1] was 0.0027 s⁻¹.
As to “FK2-TPR (which lacks FK1) (from UniProt Q13451 1-457)”, in test [2], the pKd was 6.14.
